In the assay the target is recombinant human NPR3 protein, extracellular domain amino acids Gly27-Ser482 fused to the Fc portion of mouse IgG2a at the NPR3 C-terminus (human; mouse) (UniProt P17342). In words: ELISA-based blocking assay on coated hNPR3-mFc, competitor biotin-hANP 200 pM; categorized as a non-blocker. (In general: An ELISA detects its analyte on a solid surface through an enzyme-linked reagent.)

For one substance, percent blockade results are on record in patent US20240317849A1.

Chain of UniProt P17342 (P17342 27-482 limits assumed): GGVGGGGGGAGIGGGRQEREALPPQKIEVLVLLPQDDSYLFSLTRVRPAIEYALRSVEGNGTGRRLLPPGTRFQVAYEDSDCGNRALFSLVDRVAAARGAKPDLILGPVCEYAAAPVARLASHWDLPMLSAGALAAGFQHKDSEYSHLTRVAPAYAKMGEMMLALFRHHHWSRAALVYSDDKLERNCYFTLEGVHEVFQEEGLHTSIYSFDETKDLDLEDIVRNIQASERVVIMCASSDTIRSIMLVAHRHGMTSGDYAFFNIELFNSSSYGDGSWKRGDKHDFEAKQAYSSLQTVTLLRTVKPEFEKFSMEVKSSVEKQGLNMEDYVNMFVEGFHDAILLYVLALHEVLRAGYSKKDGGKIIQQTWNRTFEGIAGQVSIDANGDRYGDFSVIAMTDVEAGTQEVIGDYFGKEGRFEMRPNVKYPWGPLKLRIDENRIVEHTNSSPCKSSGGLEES

Regarding “non-binding human IgG1 isotype control antibody (ELISA blocking assay)”, the percent blockade worked out at 32%.
